The numbers were not newly measured in article PMC4344624, which cites them from elsewhere.

This data set addresses VPg (Turnip mosaic virus) (UniProt P89509).
Chain of UniProt P89509 (P89509 1925-2116): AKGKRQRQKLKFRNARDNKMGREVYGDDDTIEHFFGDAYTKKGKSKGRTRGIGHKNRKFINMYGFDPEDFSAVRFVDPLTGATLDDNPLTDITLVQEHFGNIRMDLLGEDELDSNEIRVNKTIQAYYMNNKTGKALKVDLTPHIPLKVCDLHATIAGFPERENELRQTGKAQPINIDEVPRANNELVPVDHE

On to “Pokeweed antiviral protein (from UniProt P10297)”, for which the Kd was 29 nM.
